Results from the RNAGym collection of RNA variant scans (doi:10.1073/pnas.2313332121).

B1: TPR t1 (parent)
chain: GACCAAUCUGCCCUCAGAGCUCGAGAACAUCUUCGGAUGCAGAGGAGGCAGGCUUCGGUGGCGCGAUAGCGCCAACGUCCUCAACCUCCAAUGCAUCCCACCACAUGAUGAUGCCUGAAGAGCCUUGGUUUUUUG

Variants of: B1
Assay: polymerase ribozyme fitness, log enrichment relative to wild type (log ratio); higher = more active; in vitro selection for triplet polymerase activity
In short: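 Only genotypes with ≥10 input reads and ≥1 read per output were kept after Illumina sequencing of input and output libraries. These libraries were PCR-built, transcribed mutants of each subunit of a heterodimeric triplet polymerase ribozyme, each put through one triplicate in vitro selection round with frozen incubation at −7 °C, gel excision of extended constructs, streptavidin-bead capture and RT-PCR. Fitness is a logarithmic ratio of genotype enrichment to wild-type enrichment, from inverse-variance-weighted replicate averages, with the logarithm in base 2.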

First: GACCAAUCGGCCCUCAGAGCUCGAGAACAUCUUCGGAUGCACAGGAGGCAGGCUUCGGUGGCGCGAUAGCGCCAACGUCCUCAACCUCCAAUGCAUCCCACCGCAUGAUGAUGCCUGAAGAGCAUUGGUUUUUUG
Second: GACCAAUCGGCCCUCAGAGCUCGAGAACAUCUUCGGAUGCAGAGGAGACAGGCUUCGGUGGCGCGAUAGCGCCAACGUCCUCAACCUCCAAUGCAUCCCACCACAUGAUGGUGCCUGAAGAGCCUUGGUUUUUUG
The “polymerase ribozyme fitness (log ratio)” value of the first is lower: -6.09 for the first, 0.633 for the second.

Going from GACCAAUCGGCCCUCAGAGCUCGAGAACAUCUUCGGAUGCAGAGCAGGCAGGCUUCGGUGGCGCGAUAGCGCCAACGUACUCAACCUCCAAUGCAUCCCACCACAUGAUGAUGCCUGAAGAGCCUUGGUCUUUUG to GACCAAUCGGCCCUCAGAGCUCGAGAACAUCUUCGGAUGCAGAGGAGGCAAGCUUCGGUAGCGCGAUAGCGCCAACGUCCUCAACCUCCAAUGAAUCCCACCACAUGAUGAUGCCUGAAGAGCCUUGGUUUUUUG, the “polymerase ribozyme fitness (log ratio)” value falls from -2.2 to -3.72.

Going from GACCAAUCGGCCCUCAGAGCUCGAGAACAUCUUCGGAUGCAGAGGAGGCACGCUUGGGUGGCGCGAUAGCGCCAACGUCGUCAACCUCCAAUGCAUCCCACCACAUGAUGAUGCCUGAUGAGCCUUGGUUUUUUG to GACCAAUCGGCCCUCAGAGCUCGAGAACAUCUUCGGAUGCAGAGGAGGCAUGCUUCGGUGGCCCGAUAGCGCCAACGUCCUCAACCUCCAAUGCAUCCCACCACAUGAUGAUGCCUGAAGAGCCUUGGUUUUUUG, the “polymerase ribozyme fitness (log ratio)” value falls from -0.301 to -3.1.

Compared with GACCAAUCGGCCCUCAGAGCUCGAGAACAUCUUCGGAUGCAGAGGACGCAGGCUUCGGUCGCGCGAUAGCGCCAACGUCCUCCACCUCCAAUGCAUCCCACCACAUGAUGAUGCCUGAAGAGCCUUGGUUUUUUG, GACCAAUCGGCCCUCAGAGCUCGAGAACAUCUUCGGAUGCAGAGGAAGCAGGCUUCGGUGGCGCGAUAGCGCCAACGUCCUCAACCUCCAAUGCAUCCCACCACAUGAUGAUGCCUGAAGAGCCUUGGUUUUUUG is higher in “polymerase ribozyme fitness (log ratio)” value: -3.63 for the first, -1.81 for the second.

First: GACCAAUCGGCCCUCAGAGCUCGAGAACAUCUUCGGAUGCAGAGGAGGCAAGCUUCGGUGGCGCGAUAGCGCCAACGUCCUCAACCUCCAAUGCAUCCCACCACAUGAUGAUGCCUGAAGAGCCUUGGUUUUUUG
Second: GACCAAUCGGCCCUCAGAGCUCGAGAACAUCUUCGGAUGCAGAGGAGUUAGGCUUCGGUGGCGCGAUAGCGCGAACGUCCUCAACCUCCAAUGCAUCCCACCACAUGAUGAUGCCUGAAUAGCCUUGGUUUUUUG
The “polymerase ribozyme fitness (log ratio)” value of the first is lower: -1.96 for the first, 0.0812 for the second.

GACCAAUCGGCCCUCAGAGCUCGAGAACAUCUUCGGAUACAGAGGAGGCAGGCUUCGGUGGCGCGAUAGCGCCAACGUCCUCAACUUCCAAUGCAUCCCACCACAUGAUUAUGCCUGAAGAGCCUUGGUUUUUUG and GACCAAUCGGCCCUCAGAGCUCGAGAACAUCUUCGGAUGCAGAGGAAGCAGGCUUCGGUGGCGCGAUAGCGCCAAAGUCCUGAACCUCCAAUGCAUCCCACCACAUGAUGAUGCCAGAAGAGCCUUGGUUUUUUG are within 0.2 log units of each other in “polymerase ribozyme fitness (log ratio)” value: -2.18 for the first, -2.05 for the second.

Compared with GACCAAUCGGCCCUCAGAGCUCGAGAACAUCUUCGGAUGCAGAGGAGGCAGGCUUCGGUCGCGCGAUAGCGCCAACGUCCUCAACCUCCAAUGCAUCCCACCACAUGAUGAUGCCAGAAGAGCCUUGGUUUUUUG, GACCAAUCGGCCCUCAGAGCUCGAGAACAUCUUCGGAUGCAGAGAAGGCAGGCUUCGGUGGCGCGAUAGCGCCAACGUCCUCAACCUCCAAUGCAGCCCACCACAUGAUGAUGCCUGAAGAGCCUUGGUUUUUUG is higher in “polymerase ribozyme fitness (log ratio)” value: -1.45 for the first, -0.306 for the second.

First: GACCAAUCGGCCCUCAGAGCUCGAGAACAUCUUCGGAUGCAGAGUAGGCAGGCUUCGGUGGCGCGAUAGCGCCCACAUCCUCAACCUCCAAUGCAUCCCACCACAUGAUGACGCCUGAAGAGCCUUGGUUUUUUG
Second: GACCAAUCGGCCCUCAGAGCUCGAGAACAUCUUCGGAUACAGAGGAGGCAGGCUUCGGUGGCGUGAUAGCGCCAACGUCCUCAACCUCCAAUCGAUCCCACCACAUGAUGAUGCCUGAAGAGCCUUGGUUUUUUG
The “polymerase ribozyme fitness (log ratio)” value of the first is higher: 0.536 for the first, -4.56 for the second.

Compared with GACCAAUCGGCCCUCAGAGCUCGAGAACAUCUUCGUAUGCAGAGGAGGCAGGCUUCUGUGGCGCGAUAGCGCCAACGUCCUCAACCUCCAAUGCAUCCCACCACAUGAUGAUGCCUGAAGAGCCUUGGUUUUUUG, GACCAAUCGGCCCUCAGAGCUCGAGAACAUCUUCGGAUGCAGAGGACGCAGGCUUCGGUGGCGCGAUAGCGCCAACGUCUUCAACCUCCAAUGCAUCCCACCACAUGAUGAUGCCUGAAGAGCCUUGGUUUUUUG is lower in “polymerase ribozyme fitness (log ratio)” value: -0.893 for the first, -3.21 for the second.

Compared with GACCAAUCGGCCCUCAGAGCUCGAGAACAUCUUCGGAUGCAGAGGAGGCAGUCUUCGGUGGCGCGAUAGCGCCAACGUCCUUAACCUCCAAUGCAUCCCACCACAUGAUGAUGCCUGAAGAGCCUUGGUUUUUUG, GACCAAUCGGCCCUCAGAGCUCGAGAACAUCUUCGGAUGCAGAGACGGCAGGCUUCGGUGGCGCGAUAGCGCCAACGUCCUCAACCUCCAAUGCAUCCCACCACACGAUGAUGCCUGAAGAGCCUUGGUUUUUUG is higher in “polymerase ribozyme fitness (log ratio)” value: -1.33 for the first, -0.292 for the second.

With GACCAAUCGGCCCUCAGAGCUCGAGAACAUCUUCGGAUGCAUAGGAGGCAGGCUUCGGUGGCGCGAUAGCGCCAACGUCCUCAACCUCCAAUGCAUCCCACCACAUGAUGAUGCCUGAAGCGCCUUGGUUUUUUG the “polymerase ribozyme fitness (log ratio)” value was 0.979.
